Experimental data taken from PMC8763920, “Unprotected peptide macrocyclization and stapling via a fluorine-thiol displacement reaction” (Nature Communications, 2022).
*1 amine or outer side, *2 acyl side, *3 side chain or, on linkers, in order; H or OH if unused. Where a SMILES comes first, the peptide text is derived from it. Bridges are numbered along the chain shown (N, C = ends). [ ]: non-standard residue; d: D form. Benzene(1,3-(CH2SCH2CO)2) = O=C(CSCc1cccc(CSCC(=O)[*:2])c1)[*:1]; X3 = O=C(CSCCCCCCCCSCC(=O)[*:2])[*:1]; X2 = O=C(CSCCCCCCCSCC(=O)[*:2])[*:1]; X1 = O=C(CSCCCCCCSCC(=O)[*:2])[*:1]; X4 = O=C(CSCCCCCSCC(=O)[*:2])[*:1]; S5 = C=CCCC[C@](C)(N)C(=O)O; dDap = NC[C@@H](N)C(=O)O; Dap = NC[C@H](N)C(=O)O

Test system: DLD-1 cells
Assay: 5-day growth inhibition of DLD-1 cancer cells
Assay type: cell-based
Conditions: DLD-1, 5 days, CellTiter Glo, highest tested 16 µM
Experimental: For growth inhibition by Axin peptides, DLD-1 cells were cultured and maintained as mentioned before. Right before the assay, cells were resuspended in fresh RPMI media supplemented with 10% FBS, 100 IU/mL penicillin, and 100 µg/mL streptomycin, and plated onto 96-well white flat-bottom plates at 1000 cells per well (90 µL media/well). After overnight incubation, peptide samples were serially diluted as 10× stock in PBS buffer (10% DMSO), and were added to the plated cells at 10 µL stock solution/well in triplicate to make final treatment concentrations of 0, 0.0625, 0.125, 0.25, 0.5, 1, 2, 4, 8, 16 µM. The wells on the edges of plates were filled with PBS buffer to avoid unwanted evaporation of samples. The samples on the plates were incubated at 37 °C, 5% CO2 for 5 days, and the cell viability was evaluated by CellTiter Glo (Promega). The luminescence signals were recorded by the H1 synergy plate reader (Biotek) using the Gen5 software, and were normalized against the control groups (100%) for which cells were only treated with the vehicle (PBS/1% DMSO). Control HEK293 cells were cultured in DMEM media supplemented with 10% FBS, 1% penicillin/streptomycin at 37 °C, 5% CO2, then incubated with peptide samples and measured for viability in the same manner as mentioned above. For Axin peptide analogues’ time-dependent cytotoxicity, peptide analogues were mixed with cells (1000 cells per well) at a final concentration of 0, 5, 10, and 15 µM. The cell viabilities were meaured via CellTiter Glo after incubation of 1 day, 2 days, and 4 days, respectively. […] After 24 h of incubation, the cell viabilities were measured and normalized against the vehicle control groups the same as mentioned above.

Row | SMILES | concentration at which significant growth inhibition was first displayed
1 | CC[C@H](C)[C@@H]1NC(=O)[C@@](C)(NC(=O)[C@H](CCC(N)=O)NC(=O)[C@@H]2CCCN2C(=O)[C@H](Cc2c[nH]c3ccccc23)NC(=O)[C@H](CCCNC(=N)N)NC(=O)COCCOCCNC(=S)Nc2ccc3c(c2)C(=O)OC32c3ccc(O)cc3Oc3cc(O)ccc32)CCC/C=C\CCC[C@@](C)(C(=O)N[C@@H](Cc2c[nH]cn2)C(=O)N[C@H](C(=O)N[C@@H](CCCNC(=N)N)C(=O)N[C@@H](CCCNC(=N)N)C(=O)N[C@H](C(=O)N[C@@H](Cc2c[nH]c3ccccc23)C(=O)N[C@@H](CCCNC(=N)N)C(N)=O)C(C)C)C(C)C)NC(=O)[C@H](CC(=O)O)NC(=O)[C@H](CC(C)C)NC1=O [compound 68, reference compound] | 16 µM

Test system: not listed separately
Assay: circular dichroism
Conditions: water; pH ns; 25 °C; 70 uM

Row | SMILES | helicity
2 | CC[C@H](C)[C@@H]1NC(=O)[C@@](C)(NC(=O)[C@H](CCC(=O)O)NC(=O)[C@@H]2CCCN2C(=O)[C@H](CC(N)=O)NC(=O)[C@H](CCC(=O)O)NC(C)=O)CCCC=CCCC[C@@](C)(C(=O)N[C@@H](Cc2c[nH]cn2)C(=O)N[C@H](C(=O)N[C@@H](CCC(N)=O)C(=O)N[C@@H](CCCNC(=N)N)C(=O)N[C@H](C(=O)N[C@@H](CCSC)C(N)=O)C(C)C)C(C)C)NC(=O)[C@H](CC(=O)O)NC(=O)[C@H](CC(C)C)NC1=O (Ac-ENPE[S5]ILD[S5]HVQRVM-NH2; staple 5-9) | 48%
3 | CC[C@H](C)[C@@H]1NC(=O)[C@H](NC(=O)[C@H](CCC(=O)O)NC(=O)[C@@H]2CCCN2C(=O)[C@H](CC(N)=O)NC(=O)[C@H](CCC(=O)O)NC(C)=O)CNC(=O)CSCCCCCCCSCC(=O)NC[C@@H](C(=O)N[C@@H](Cc2c[nH]cn2)C(=O)N[C@H](C(=O)N[C@@H](CCC(N)=O)C(=O)N[C@@H](CCCNC(=N)N)C(=O)N[C@H](C(=O)N[C@@H](CCSC)C(N)=O)C(C)C)C(C)C)NC(=O)[C@H](CC(=O)O)NC(=O)[C@H](CC(C)C)NC1=O (Ac-ENPE[dDap]ILD[Dap]HVQRVM-NH2; linker 5-9 via X2) | 19%
4 | CC[C@H](C)[C@@H]1NC(=O)[C@H](NC(=O)[C@H](CCC(=O)O)NC(=O)[C@@H]2CCCN2C(=O)[C@H](CC(N)=O)NC(=O)[C@H](CCC(=O)O)NC(C)=O)CNC(=O)CSCCCCCCCCSCC(=O)NC[C@@H](C(=O)N[C@@H](Cc2c[nH]cn2)C(=O)N[C@H](C(=O)N[C@@H](CCC(N)=O)C(=O)N[C@@H](CCCNC(=N)N)C(=O)N[C@H](C(=O)N[C@@H](CCSC)C(N)=O)C(C)C)C(C)C)NC(=O)[C@H](CC(=O)O)NC(=O)[C@H](CC(C)C)NC1=O (Ac-ENPE[dDap]ILD[Dap]HVQRVM-NH2; linker 5-9 via X3) | 5%
5 | CC[C@H](C)[C@@H]1NC(=O)[C@H](NC(=O)[C@H](CCC(=O)O)NC(=O)[C@@H]2CCCN2C(=O)[C@H](CC(N)=O)NC(=O)[C@H](CCC(=O)O)NC(C)=O)CNC(=O)CSCCCCCCSCC(=O)NC[C@H](C(=O)N[C@@H](Cc2c[nH]cn2)C(=O)N[C@H](C(=O)N[C@@H](CCC(N)=O)C(=O)N[C@@H](CCCNC(=N)N)C(=O)N[C@H](C(=O)N[C@@H](CCSC)C(N)=O)C(C)C)C(C)C)NC(=O)[C@H](CC(=O)O)NC(=O)[C@H](CC(C)C)NC1=O (Ac-ENPE[dDap]ILD[dDap]HVQRVM-NH2; linker 5-9 via X1) | 28%
6 | CC[C@H](C)[C@@H]1NC(=O)[C@H](NC(=O)[C@H](CCC(=O)O)NC(=O)[C@@H]2CCCN2C(=O)[C@H](CC(N)=O)NC(=O)[C@H](CCC(=O)O)NC(C)=O)CNC(=O)CSCCCCCCCSCC(=O)NC[C@H](C(=O)N[C@@H](Cc2c[nH]cn2)C(=O)N[C@H](C(=O)N[C@@H](CCC(N)=O)C(=O)N[C@@H](CCCNC(=N)N)C(=O)N[C@H](C(=O)N[C@@H](CCSC)C(N)=O)C(C)C)C(C)C)NC(=O)[C@H](CC(=O)O)NC(=O)[C@H](CC(C)C)NC1=O (Ac-ENPE[dDap]ILD[dDap]HVQRVM-NH2; linker 5-9 via X2) | 31%
7 | CC[C@H](C)[C@@H]1NC(=O)[C@H](NC(=O)[C@H](CCC(=O)O)NC(=O)[C@@H]2CCCN2C(=O)[C@H](CC(N)=O)NC(=O)[C@H](CCC(=O)O)NC(C)=O)CNC(=O)CSCCCCCCCCSCC(=O)NC[C@H](C(=O)N[C@@H](Cc2c[nH]cn2)C(=O)N[C@H](C(=O)N[C@@H](CCC(N)=O)C(=O)N[C@@H](CCCNC(=N)N)C(=O)N[C@H](C(=O)N[C@@H](CCSC)C(N)=O)C(C)C)C(C)C)NC(=O)[C@H](CC(=O)O)NC(=O)[C@H](CC(C)C)NC1=O (Ac-ENPE[dDap]ILD[dDap]HVQRVM-NH2; linker 5-9 via X3) | 25%
8 | CC[C@H](C)[C@@H]1NC(=O)[C@H](NC(=O)[C@H](CCC(=O)O)NC(=O)[C@@H]2CCCN2C(=O)[C@H](CC(N)=O)NC(=O)[C@H](CCC(=O)O)NC(C)=O)CNC(=O)CSCCCCCSCC(=O)NC[C@H](C(=O)N[C@@H](Cc2c[nH]cn2)C(=O)N[C@H](C(=O)N[C@@H](CCC(N)=O)C(=O)N[C@@H](CCCNC(=N)N)C(=O)N[C@H](C(=O)N[C@@H](CCSC)C(N)=O)C(C)C)C(C)C)NC(=O)[C@H](CC(=O)O)NC(=O)[C@H](CC(C)C)NC1=O (Ac-ENPE[dDap]ILD[dDap]HVQRVM-NH2; linker 5-9 via X4) | 14%
9 | CC[C@H](C)[C@@H]1NC(=O)[C@@H](NC(=O)[C@@H](N)CCC(=O)O)CNC(=O)CSCc2cccc(c2)CSCC(=O)NC[C@@H](C(=O)N[C@@H](Cc2c[nH]cn2)C(=O)O)NC(=O)[C@H](CC(=O)O)NC(=O)[C@H](CC(C)C)NC1=O (H-E[Dap]ILD[Dap]H-OH; linker 2-6 via Benzene(1,3-(CH2SCH2CO)2)) | 41%
10 | CC[C@H](C)[C@@H]1NC(=O)[C@@H](NC(=O)[C@@H](N)CCC(=O)O)CNC(=O)CSCc2cccc(c2)CSCC(=O)NC[C@H](C(=O)N[C@@H](Cc2c[nH]cn2)C(=O)O)NC(=O)[C@H](CC(=O)O)NC(=O)[C@H](CC(C)C)NC1=O (H-E[Dap]ILD[dDap]H-OH; linker 2-6 via Benzene(1,3-(CH2SCH2CO)2)) | 39%
11 | CC[C@H](C)[C@@H]1NC(=O)[C@H](NC(=O)[C@@H](N)CCC(=O)O)CNC(=O)CSCc2cccc(c2)CSCC(=O)NC[C@@H](C(=O)N[C@@H](Cc2c[nH]cn2)C(=O)O)NC(=O)[C@H](CC(=O)O)NC(=O)[C@H](CC(C)C)NC1=O (H-E[dDap]ILD[Dap]H-OH; linker 2-6 via Benzene(1,3-(CH2SCH2CO)2)) | 13%
